Test results as given in publication PMC6582406 (Nucleic Acids Research, 2019).

Molecular target: the molecule itself
Assay: SEC

B1: EBOV VP35 fused with maltose-binding protein at its N-terminal (MBP–VP35) (natural protein)
chain: MTTRTKGRGHTAATTQNDRMPGPELSGWISEQLMTGRIPVSDIFCDIENNPGLCYASQMQQTKPNPKTRNSQTQTDPICNHSFEEVVQTLASLATVVQQQTIASESLEQRITSLENGLKPVYDMAKTISSLNRVCAEMVAKYDLLVMTTGRATATAAATEAYWAEHGQPPPGPSLYEESAIRGKIESRDETVPQSVREAFNNLNSTTSLTEENFGKPDISAKDLRNIMYDHLPGFGTAFHQLVQVICKLGKDSNSLDIIHAEFQASLAEGDSPQCALIQITKRVPIFQDAAPPVIHIRSRGDIPRACQKSLRPVPPSPKIDRGWVCVFQLQDGKTLGLKI
- binding result: binds
